Test results as given in article PMC3477141, “Repositioning Antimicrobial Agent Pentamidine as a Disruptor of the Lateral Interactions of Transmembrane Domain 5 of EBV Latent Membrane Protein 1” (PLoS ONE, 2012).
Where no end group is shown, it is not given here.

Experiments:
[1] = biological target: the molecule itself; test: Bis-Tris SDS-PAGE; 12% NuPAGE Bis-Tris gel, MES SDS running buffer, room temperature; 200 uM TMD-5 peptide in Laemmli sample buffer overnight, heated at 90 C for 7 min; Coomassie stain; pentamidine to peptide ratios 0 to 20
[2] = biological target: the molecule itself; test: coumarin fluorescence dequenching (self-quenching) assay; 100 nM coumarin labeled TMD-5 in 50 mM HEPES pH 7.4 with 150 uM C14 betaine micelles, room temperature overnight; excitation 360 nm, emission 430 nm; with or without 64 uM pentamidine

Protein	stoichiometry N [1]	binding result [2]
KKKKWQLLAFFLAFFLDLILLIIALYLKKKK (lysine flank added to increase the solubility of the peptide; transmembrane domain 5 (TMD-5) of latent membrane protein 1 (LMP-1) of Epstein-Barr virus; source: synthetic peptide, purified by reverse phase HPLC) [LMP-1 TMD-5 peptide KKKK-TMD-5-KKKK]	3	–
{7‑hydroxycoumarin‑3‑carboxylic acid}-GGGPGWQLLAFFLAFFLDLILLIIALYLGPGG (flank between the coumarin label and TMD-5; transmembrane domain 5 (TMD-5) of latent membrane protein 1 (LMP-1) of Epstein-Barr virus; C-terminal flank; also called coumarin labeled TMD-5; source: synthetic peptide, labeled with coumarin on the resin, purified by reverse phase HPLC) [coumarin labeled LMP-1 TMD-5 peptide]	–	binds
